Results on two molecules are retold here after publication doi:10.1101/2022.02.02.478874 (bioRxiv, 2022).

First the molecules themselves.
B2: ^mChSpindly^CC2* (R295E-K297E) (natural protein)
chain: MEADIITNLRCRLKEAEEERLKAAQYGLQLVESQNELQNQLDKCRNEMMTMTESYEQEKYTLQREVELKSRMLESLSCECEAIKQQQKMHLEKLEEQLSRSHGQEVNELKTKIEKLKVELDEARLSEKQLKHQVDHQKELLSCKSEELRVMSERVQESMSSEMLALQIELTEMESMKTTLKEEVNELQYRQEQLELLITNLMRQVDRLKEEKEEREKEAVSYYNALEKARVANQDLQVQLDQALQQALDPNSKGNSLFAEVEDRRAAMERQLISMKVKYQSLKKQNVFNREQMQEMELQIATLLQMKGSQTEFEQQERLLAMLEQKNGEIKHLLGEIRNLEKFKNLYDSMESKPSVDSGTLEDNTYYTDLLQMKLDNLNKEIESTKGELSIQRMKALFESQRALDIERKLFANERCLQLSESENMKLRAKLDELKLKYEPEETVEVPVLKKRREVLPVDITTAKDACVNNSALGGEVYRLPPQKEETQSCPNSLEDNNLQLEKSVSIYTPVVSLSPHKNLPVDMQLKKEKKCVKLIGVPADAEALSERSGNTPNSPRLAAESKLQTEVKEGKETSSKLEKETCKKLHPILYVSSKSTPETQCPQQ

Data set [1] addresses T1, ^mChSpindly^ΔRV (human, UniProt Q96EA4 1-605, ΔRV (residues R154-V155)).
T1 sequence: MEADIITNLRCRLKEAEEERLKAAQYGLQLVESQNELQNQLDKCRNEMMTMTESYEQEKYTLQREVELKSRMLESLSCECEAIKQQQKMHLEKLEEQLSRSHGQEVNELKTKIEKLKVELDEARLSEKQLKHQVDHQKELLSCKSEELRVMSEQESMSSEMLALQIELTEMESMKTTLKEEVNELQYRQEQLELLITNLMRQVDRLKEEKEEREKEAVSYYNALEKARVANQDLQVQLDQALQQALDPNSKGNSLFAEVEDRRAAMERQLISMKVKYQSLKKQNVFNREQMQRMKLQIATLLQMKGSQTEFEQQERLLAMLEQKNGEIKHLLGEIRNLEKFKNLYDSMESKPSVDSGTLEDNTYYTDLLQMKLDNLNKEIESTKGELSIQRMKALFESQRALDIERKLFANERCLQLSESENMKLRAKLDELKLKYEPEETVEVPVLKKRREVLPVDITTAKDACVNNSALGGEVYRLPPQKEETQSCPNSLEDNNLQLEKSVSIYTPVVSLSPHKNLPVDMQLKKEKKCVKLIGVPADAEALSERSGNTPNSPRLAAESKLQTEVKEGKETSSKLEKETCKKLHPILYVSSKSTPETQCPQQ
The data set can be described thus: pull-down.

Data set [2] addresses B2. Kind of data set: pull-down.
Data set [3] deals with the molecule itself. Kind of data set: mass photometry.
Data set [4] concerns the target ROD-Zwilch-ZW10 (RZZ) complex with mCherry on ROD (UniProt P50748;Q9H900;O43264). Kind of data set: SEC.

A word on the stoichiometry N: it is a count of units in the complex or per binding partner.

Chain of ROD-Zwilch-ZW10 (RZZ) complex with mCherry on ROD (P50748 whole entry, chain 1 of 3): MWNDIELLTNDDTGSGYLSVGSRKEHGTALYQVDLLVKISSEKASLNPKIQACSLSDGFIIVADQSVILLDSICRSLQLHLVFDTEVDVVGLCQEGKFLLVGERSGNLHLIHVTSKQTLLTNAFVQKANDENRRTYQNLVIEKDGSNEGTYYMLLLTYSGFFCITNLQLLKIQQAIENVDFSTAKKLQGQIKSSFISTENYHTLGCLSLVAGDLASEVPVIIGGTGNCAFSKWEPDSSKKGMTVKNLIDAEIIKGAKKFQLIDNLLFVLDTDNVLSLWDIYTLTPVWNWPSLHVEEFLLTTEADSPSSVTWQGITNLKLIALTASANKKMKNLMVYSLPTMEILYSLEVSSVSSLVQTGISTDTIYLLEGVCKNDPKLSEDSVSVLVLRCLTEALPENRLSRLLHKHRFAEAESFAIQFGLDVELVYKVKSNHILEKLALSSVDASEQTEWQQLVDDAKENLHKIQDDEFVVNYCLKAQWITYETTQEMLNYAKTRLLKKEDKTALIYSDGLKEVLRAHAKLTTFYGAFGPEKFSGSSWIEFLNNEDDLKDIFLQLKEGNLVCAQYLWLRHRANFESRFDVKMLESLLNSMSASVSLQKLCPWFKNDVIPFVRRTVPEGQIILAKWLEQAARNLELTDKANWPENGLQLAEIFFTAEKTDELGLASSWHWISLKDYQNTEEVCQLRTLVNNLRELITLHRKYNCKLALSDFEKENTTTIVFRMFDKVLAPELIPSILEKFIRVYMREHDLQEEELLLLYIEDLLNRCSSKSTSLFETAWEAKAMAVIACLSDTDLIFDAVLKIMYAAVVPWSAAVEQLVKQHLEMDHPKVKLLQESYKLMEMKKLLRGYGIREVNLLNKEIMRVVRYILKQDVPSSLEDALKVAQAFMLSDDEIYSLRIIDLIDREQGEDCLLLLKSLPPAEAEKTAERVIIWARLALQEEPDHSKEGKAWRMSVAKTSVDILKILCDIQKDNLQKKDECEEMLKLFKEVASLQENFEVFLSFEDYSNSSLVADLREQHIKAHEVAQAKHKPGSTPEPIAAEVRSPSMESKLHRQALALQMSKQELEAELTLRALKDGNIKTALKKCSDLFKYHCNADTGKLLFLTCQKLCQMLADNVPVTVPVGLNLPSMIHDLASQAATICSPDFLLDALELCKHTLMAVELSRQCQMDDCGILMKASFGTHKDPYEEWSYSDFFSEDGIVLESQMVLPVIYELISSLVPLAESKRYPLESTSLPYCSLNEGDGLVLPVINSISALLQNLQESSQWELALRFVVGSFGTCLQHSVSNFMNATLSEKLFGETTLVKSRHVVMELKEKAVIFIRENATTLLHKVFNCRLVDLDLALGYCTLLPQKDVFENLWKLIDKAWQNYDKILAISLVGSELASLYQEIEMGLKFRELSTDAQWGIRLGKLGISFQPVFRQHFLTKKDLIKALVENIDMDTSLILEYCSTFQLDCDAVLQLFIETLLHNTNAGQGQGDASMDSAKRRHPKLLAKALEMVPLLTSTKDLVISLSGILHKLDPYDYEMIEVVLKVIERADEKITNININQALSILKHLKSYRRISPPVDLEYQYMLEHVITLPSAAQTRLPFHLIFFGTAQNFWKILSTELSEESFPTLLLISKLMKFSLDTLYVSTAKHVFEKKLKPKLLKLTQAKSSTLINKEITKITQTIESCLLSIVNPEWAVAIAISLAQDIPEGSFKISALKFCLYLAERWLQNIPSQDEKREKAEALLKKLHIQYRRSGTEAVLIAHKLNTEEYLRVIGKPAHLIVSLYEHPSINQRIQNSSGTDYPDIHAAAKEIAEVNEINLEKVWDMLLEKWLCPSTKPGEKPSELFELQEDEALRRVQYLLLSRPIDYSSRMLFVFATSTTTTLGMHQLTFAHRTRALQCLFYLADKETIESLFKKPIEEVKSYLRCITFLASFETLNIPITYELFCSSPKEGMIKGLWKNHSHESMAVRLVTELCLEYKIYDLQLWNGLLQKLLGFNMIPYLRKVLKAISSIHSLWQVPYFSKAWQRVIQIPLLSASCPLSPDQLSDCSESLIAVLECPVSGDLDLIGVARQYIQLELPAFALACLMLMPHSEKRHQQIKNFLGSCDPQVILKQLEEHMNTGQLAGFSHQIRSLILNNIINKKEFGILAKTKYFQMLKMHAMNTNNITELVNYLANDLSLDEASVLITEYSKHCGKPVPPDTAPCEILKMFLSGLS
Chain of ROD-Zwilch-ZW10 (RZZ) complex with mCherry on ROD (Q9H900 whole entry, chain 2 of 3): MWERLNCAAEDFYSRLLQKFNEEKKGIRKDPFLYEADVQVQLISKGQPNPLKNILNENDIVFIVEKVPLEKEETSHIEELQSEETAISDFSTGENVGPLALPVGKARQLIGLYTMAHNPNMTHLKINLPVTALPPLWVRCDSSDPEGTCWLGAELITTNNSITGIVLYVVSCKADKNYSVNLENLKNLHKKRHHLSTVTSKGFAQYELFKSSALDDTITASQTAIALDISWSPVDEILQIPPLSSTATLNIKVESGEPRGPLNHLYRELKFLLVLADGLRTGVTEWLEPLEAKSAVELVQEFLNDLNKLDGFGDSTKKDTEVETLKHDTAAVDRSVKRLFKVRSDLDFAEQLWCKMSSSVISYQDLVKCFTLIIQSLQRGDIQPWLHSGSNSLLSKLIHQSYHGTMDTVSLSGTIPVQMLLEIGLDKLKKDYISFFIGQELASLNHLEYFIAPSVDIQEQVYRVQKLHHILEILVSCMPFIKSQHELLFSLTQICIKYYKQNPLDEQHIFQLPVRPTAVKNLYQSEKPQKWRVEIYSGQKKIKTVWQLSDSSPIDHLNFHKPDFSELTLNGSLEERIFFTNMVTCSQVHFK
Chain of ROD-Zwilch-ZW10 (RZZ) complex with mCherry on ROD (O43264 whole entry, chain 3 of 3): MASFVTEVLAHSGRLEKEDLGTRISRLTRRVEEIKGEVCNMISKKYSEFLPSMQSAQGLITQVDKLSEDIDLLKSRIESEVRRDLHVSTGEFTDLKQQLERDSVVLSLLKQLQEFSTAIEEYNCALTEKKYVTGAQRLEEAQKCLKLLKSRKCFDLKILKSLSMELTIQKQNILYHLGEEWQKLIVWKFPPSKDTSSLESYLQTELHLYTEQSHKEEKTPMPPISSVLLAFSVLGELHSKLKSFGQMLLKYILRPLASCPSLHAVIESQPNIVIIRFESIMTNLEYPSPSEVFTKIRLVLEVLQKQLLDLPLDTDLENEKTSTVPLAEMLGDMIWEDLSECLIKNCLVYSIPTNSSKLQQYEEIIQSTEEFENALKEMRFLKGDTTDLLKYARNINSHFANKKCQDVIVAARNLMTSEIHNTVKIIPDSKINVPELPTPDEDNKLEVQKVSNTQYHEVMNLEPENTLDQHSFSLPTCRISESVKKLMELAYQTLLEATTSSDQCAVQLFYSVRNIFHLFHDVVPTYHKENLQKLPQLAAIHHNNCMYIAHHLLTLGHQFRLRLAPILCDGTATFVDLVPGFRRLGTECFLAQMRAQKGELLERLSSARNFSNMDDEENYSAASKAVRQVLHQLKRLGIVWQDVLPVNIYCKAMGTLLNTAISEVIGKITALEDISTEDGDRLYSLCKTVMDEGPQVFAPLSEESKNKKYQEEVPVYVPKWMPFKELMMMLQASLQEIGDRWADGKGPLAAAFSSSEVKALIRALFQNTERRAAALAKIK

B1: GST-tagged LIC2 (Dynein light intermediate chain 2) (natural protein)
chain: MAPVGVEKKLLLGPNGPAVAAAGDLTSEEEEGQSLWSSILSEVSTRARSKLPSGKNILVFGEDGSGKTTLMTKLQGAEHGKKGRGLEYLYLSVHDEDRDDHTRCNVWILDGDLYHKGLLKFAVSAESLPETLVIFVADMSRPWTVMESLQKWASVLREHIDKMKIPPEKMRELERKFVKDFQDYMEPEEGCQGSPQRRGPLTSGSDEENVALPLGDNVLTHNLGIPVLVVCTKCDAVSVLEKEHDYRDEHLDFIQSHLRRFCLQYGAALIYTSVKEEKNLDLLYKYIVHKTYGFHFTTPALVVEKDAVFIPAGWDNEKKIAILHENFTTVKPEDAYEDFIVKPPVRKLVHDKELAAEDEQVFLMKQQSLLAKQPATPTRASESPARGPSGSPRTQGRGGPASVPSSSPGTSVKKPDPNIKNNAASEGVLASFFNSLLSKKTGSPGSPGAGGVQSTAKKSGQKTVLSNVQEELDRMTRKPDSMVTNSSTENEA
Regarding B1, the binding result in data set [1] and in data set [2] was “binds” throughout.
B2: the “stoichiometry N” value in data set [3] came to 2. In data set [4], the binding result is “binds”.
